Results published in paper PMC5141469 (Scientific Reports, 2016).

T1: YajC (E. coli, UniProt P0ADZ7 1-110)
T1 construct: YajC of E. coli; also called subunit of SecDF-YajC; subunit of the holo-translocon (HTL)
T1 sequence (looked up): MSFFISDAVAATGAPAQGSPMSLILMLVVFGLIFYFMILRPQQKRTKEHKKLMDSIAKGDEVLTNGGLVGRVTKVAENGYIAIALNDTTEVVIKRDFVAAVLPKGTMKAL


Target: T1, YajC
Test: SEC + AUC; co-purified detergent-solubilised (DDM) HTL; ultracentrifugation 16 h at 35,000 rpm, 10 °C, absorbance at 280 nm and interference
Details: both partners purified

Binder | stoichiometry N
SecG (natural protein, E. coli, UniProt P0AG99 1-110, looked up, SecG, subunit of the E. coli SecYEG protein-conducting channel; also called subunit of SecYEG; subunit of the holo-translocon (HTL)) MYEALLVVFLIVAIGLVGLIMLQQGKGADMGASFGAGASATLFGSSGSGNFMTRMTALLATLFFIISLVLGNINSNKTNKGSEWENLSAPAKTEQTQPAAPAKPTSDIPN | 1
SecD (natural protein, E. coli, UniProt P0AG90 1-615, looked up, SecD of E. coli; also called subunit of SecDF; subunit of the holo-translocon (HTL); not shown: His6, C-terminal, kept) MLNRYPLWKYVMLIVVIVIGLLYALPNLFGEDPAVQITGARGVAASEQTLIQVQKTLQEEKITAKSVALEEGAILARFDSTDTQLRAREALMGVMGDKYVVALNLAPATPRWLAAIHAEPMKLGLDLRGGVHFLMEVDMDTALGKLQEQNIDSLRSDLREKGIPYTTVRKENNYGLSITFRDAKARDEAIAYLSKRHPDLVISSQGSNQLRAVMSDARLSEAREYAVQQNINILRNRVNQLGVAEPVVQRQGADRIVVELPGIQDTARAKEILGATATLEFRLVNTNVDQAAAASGRVPGDSEVKQTREGQPVVLYKRVILTGDHITDSTSSQDEYNQPQVNISLDSAGGNIMSNFTKDNIGKPMATLFVEYKDSGKKDANGRAVLVKQEEVINIANIQSRLGNSFRITGINNPNEARQLSLLLRAGALIAPIQIVEERTIGPTLGMQNIEQGLEACLAGLLVSILFMIIFYKKFGLIATSALIANLILIVGIMSLLPGATLSMPGIAGIVLTLAVAVDANVLINERIKEELSNGRTVQQAIDEGYRGAFSSIFDANITTLIKVIILYAVGTGAIKGFAITTGIGVATSMFTAIVGTRAIVNLLYGGKRVKKLSI | 1
SecE (natural protein, E. coli, UniProt P0AG96 1-127, looked up, SecE, subunit of the E. coli SecYEG protein-conducting channel; also called subunit of SecYEG; subunit of the holo-translocon (HTL); not shown: His6, N-terminal, kept) MSANTEAQGSGRGLEAMKWVVVVALLLVAIVGNYLYRDIMLPLRALAVVILIAAAGGVALLTTKGKATVAFAREARTEVRKVIWPTRQETLHTTLIVAAVTAVMSLILWGLDGILVRLVSFITGLRF | 1
SecF (natural protein, E. coli, UniProt P0AG93 1-323, looked up, SecF of E. coli; also called subunit of SecDF; subunit of the holo-translocon (HTL)) MAQEYTVEQLNHGRKVYDFMRWDYWAFGISGLLLIAAIVIMGVRGFNWGLDFTGGTVIEITLEKPAEIDVMRDALQKAGFEEPMLQNFGSSHDIMVRMPPAEGETGGQVLGSQVLKVINESTNQNAAVKRIEFVGPSVGADLAQTGAMALMAALLSILVYVGFRFEWRLAAGVVIALAHDVIITLGILSLFHIEIDLTIVASLMSVIGYSLNDSIVVSDRIRENFRKIRRGTPYEIFNVSLTQTLHRTLITSGTTLMVILMLYLFGGPVLEGFSLTMLIGVSIGTASSIYVASALALKLGMKREHMLQQKVEKEGADQPSILP | 1

Continued, values first:

stoichiometry N | Binder
1 | SecY (natural protein, E. coli, UniProt P0AGA2 1-443, looked up, SecY, subunit of the E. coli SecYEG protein-conducting channel; also called subunit of SecYEG; subunit of the holo-translocon (HTL)) MAKQPGLDFQSAKGGLGELKRRLLFVIGALIVFRIGSFIPIPGIDAAVLAKLLEQQRGTIIEMFNMFSGGALSRASIFALGIMPYISASIIIQLLTVVHPTLAEIKKEGESGRRKISQYTRYGTLVLAIFQSIGIATGLPNMPGMQGLVINPGFAFYFTAVVSLVTGTMFLMWLGEQITERGIGNGISIIIFAGIVAGLPPAIAHTIEQARQGDLHFLVLLLVAVLVFAVTFFVVFVERGQRRIVVNYAKRQQGRRVYAAQSTHLPLKVNMAGVIPAIFASSIILFPATIASWFGGGTGWNWLTTISLYLQPGQPLYVLLYASAIIFFCFFYTALVFNPRETADNLKKSGAFVPGIRPGEQTAKYIDKVMTRLTLVGALYITFICLIPEFMRDAMKVPFYFGGTSLLIVVVVIMDFMAQVQTLMMSSQYESALKKANLKGYGR
1 | YidC (natural protein, E. coli, UniProt P25714 1-548, looked up, YidC of E. coli; also called membrane 'insertase' YidC; subunit of the holo-translocon (HTL); not shown: His6, C-terminal, kept) MDSQRNLLVIALLFVSFMIWQAWEQDKNPQPQAQQTTQTTTTAAGSAADQGVPASGQGKLISVKTDVLDLTINTRGGDVEQALLPAYPKELNSTQPFQLLETSPQFIYQAQSGLTGRDGPDNPANGPRPLYNVEKDAYVLAEGQNELQVPMTYTDAAGNTFTKTFVLKRGDYAVNVNYNVQNAGEKPLEISSFGQLKQSITLPPHLDTGSSNFALHTFRGAAYSTPDEKYEKYKFDTIADNENLNISSKGGWVAMLQQYFATAWIPHNDGTNNFYTANLGNGIAAIGYKSQPVLVQPGQTGAMNSTLWVGPEIQDKMAAVAPHLDLTVDYGWLWFISQPLFKLLKWIHSFVGNWGFSIIIITFIVRGIMYPLTKAQYTSMAKMRMLQPKIQAMRERLGDDKQRISQEMMALYKAEKVNPLGGCFPLLIQMPIFLALYYMLMGSVELRQAPFALWIHDLSAQDPYYILPILMGVTMFFIQKMSPTTVTDPMQQKIMTFMPVIFTVFFLWFPSGLVLYYIVSNLVTIIQQQLIYRGLEKRGLHSREKKKS
